According to paper PMC9482650, “Quantitative fragmentomics allow affinity mapping of interactomes” (Nature Communications, 2022):
Blank lines part the entries; values can stand above or below the binder they belong to.

What was measured:
Test in all cases: holdup assay
Set-up in all cases: key: below the threshold = too weak to quantify, mostly under pKd 3.1 to 4
[1] = biological target: Inadl_6, Q8NI35
[2] = biological target: T1, SNTG1, Q9NSN8
T1 sequence (Q9NSN8 52-150, limits assumed, looked up): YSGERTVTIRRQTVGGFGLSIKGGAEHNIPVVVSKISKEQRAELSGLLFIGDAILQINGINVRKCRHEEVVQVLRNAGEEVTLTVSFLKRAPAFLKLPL

[3] = biological target: Inadl_10, Q8NI35
[4] = biological target: T2, SYNJ2BP, P57105
T2 sequence (P57105 8-110, limits assumed, looked up): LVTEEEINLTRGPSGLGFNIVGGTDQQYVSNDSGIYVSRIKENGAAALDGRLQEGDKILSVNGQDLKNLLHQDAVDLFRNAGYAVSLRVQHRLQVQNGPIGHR

[5] = biological target: T3, PDZRN3_1, Q9UPQ7
T3 sequence (Q9UPQ7 244-349, limits assumed, looked up): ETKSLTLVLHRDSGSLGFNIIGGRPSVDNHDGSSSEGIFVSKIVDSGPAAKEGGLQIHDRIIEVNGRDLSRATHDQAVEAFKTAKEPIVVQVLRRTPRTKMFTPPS

[6] = biological target: GRIP2_5, Q9C0E4
[7] = biological target: FRMPD2_3, Q68DX3
[8] = biological target: T4, GRIP1_3, Q9Y3R0
T4 sequence (Q9Y3R0 247-346, limits assumed, looked up): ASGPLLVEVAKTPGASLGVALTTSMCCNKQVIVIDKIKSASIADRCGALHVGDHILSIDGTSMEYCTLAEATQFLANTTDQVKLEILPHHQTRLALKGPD

[9] = biological target: T5, HTRA4, P83105
T5 sequence (P83105 378-476, limits assumed, looked up): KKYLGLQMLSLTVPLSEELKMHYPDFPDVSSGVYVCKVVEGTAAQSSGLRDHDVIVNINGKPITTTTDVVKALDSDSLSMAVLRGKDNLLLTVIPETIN

[10] = biological target: Inadl_2, Q8NI35
[11] = biological target: T6, DFNB31_2, Q9P202
T6 sequence (Q9P202 274-371, limits assumed, looked up): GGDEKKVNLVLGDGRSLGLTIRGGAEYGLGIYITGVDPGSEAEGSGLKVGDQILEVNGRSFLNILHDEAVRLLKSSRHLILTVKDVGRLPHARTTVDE

[12] = biological target: MAGI2_5, Q86UL8
[13] = biological target: T7, MPP7, Q5T2T1
T7 sequence (Q5T2T1 134-230, limits assumed, looked up): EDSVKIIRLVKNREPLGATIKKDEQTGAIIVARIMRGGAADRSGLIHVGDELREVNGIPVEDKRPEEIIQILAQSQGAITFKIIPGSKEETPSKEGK

[14] = biological target: GIPC2, Q8TF65; details: plain residues with an end cap or a label only (N-terminal biotin on a linker: ado-ado)
[15] = biological target: GRIP2_7, Q9C0E4
[16] = biological target: PICK1, Q9NRD5
[17] = biological target: LDB3, O75112
[18] = biological target: MAGI3_2, Q5TCQ9
[19] = biological target: MAGI1_2, Q96QZ7
[20] = biological target: T8, NHERF3_1, Q5T2W1
T8 sequence (Q5T2W1 4-100, limits assumed, looked up): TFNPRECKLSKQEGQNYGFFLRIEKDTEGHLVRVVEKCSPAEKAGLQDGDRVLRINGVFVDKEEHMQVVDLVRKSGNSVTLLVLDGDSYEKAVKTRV

[21] = biological target: T9, MPP6, Q9NZW5
T9 sequence (Q9NZW5 125-219, limits assumed, looked up): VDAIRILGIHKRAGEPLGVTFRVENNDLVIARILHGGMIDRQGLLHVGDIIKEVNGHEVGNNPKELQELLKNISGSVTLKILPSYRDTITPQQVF

[22] = biological target: T10, DLG3_2, Q92796
T10 sequence (Q92796 221-321, limits assumed, looked up): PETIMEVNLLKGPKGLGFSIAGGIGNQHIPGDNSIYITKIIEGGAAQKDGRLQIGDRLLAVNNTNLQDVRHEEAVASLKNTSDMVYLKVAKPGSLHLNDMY

[23] = biological target: T11, ARHGAP21, Q5T5U3
T11 sequence (Q5T5U3 45-169, limits assumed, looked up): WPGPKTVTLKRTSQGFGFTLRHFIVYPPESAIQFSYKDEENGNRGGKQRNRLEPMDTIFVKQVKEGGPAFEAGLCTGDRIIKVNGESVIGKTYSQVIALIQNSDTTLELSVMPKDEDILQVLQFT

[24] = biological target: T12, LIN7B, Q9HAP6
T12 sequence (Q9HAP6 88-185, limits assumed, looked up): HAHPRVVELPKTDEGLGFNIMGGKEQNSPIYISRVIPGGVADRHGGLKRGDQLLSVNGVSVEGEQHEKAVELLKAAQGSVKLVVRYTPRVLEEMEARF

[25] = plain residues with an end cap or a label only (N-terminal biotin on a linker: ado-ado)
[26] = modified: acetyl on K at position -1 from the C-terminal residue

MAGI2_5, Q86UL8, sequence (Q86UL8 915-1017): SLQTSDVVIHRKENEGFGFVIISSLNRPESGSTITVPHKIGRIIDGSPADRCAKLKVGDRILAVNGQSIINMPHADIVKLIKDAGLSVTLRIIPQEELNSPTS
Inadl_2, Q8NI35, sequence (Q8NI35 238-335): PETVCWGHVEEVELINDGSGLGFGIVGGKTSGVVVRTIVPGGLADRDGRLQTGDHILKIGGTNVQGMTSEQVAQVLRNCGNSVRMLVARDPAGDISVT
PICK1, Q9NRD5, sequence (Q9NRD5 17-115): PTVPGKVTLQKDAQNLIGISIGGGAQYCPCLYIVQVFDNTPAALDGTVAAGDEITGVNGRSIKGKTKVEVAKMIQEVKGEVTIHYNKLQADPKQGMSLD
GRIP2_7, Q9C0E4, sequence (Q9C0E4 934-1023): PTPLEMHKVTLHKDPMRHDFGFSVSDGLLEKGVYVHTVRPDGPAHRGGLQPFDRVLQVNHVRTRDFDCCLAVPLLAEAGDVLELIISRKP
FRMPD2_3, Q68DX3, sequence (Q68DX3 1073-1166): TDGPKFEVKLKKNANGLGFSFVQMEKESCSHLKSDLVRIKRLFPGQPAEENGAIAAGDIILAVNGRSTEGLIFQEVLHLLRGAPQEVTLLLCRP
LDB3, O75112, sequence (O75112 1-94): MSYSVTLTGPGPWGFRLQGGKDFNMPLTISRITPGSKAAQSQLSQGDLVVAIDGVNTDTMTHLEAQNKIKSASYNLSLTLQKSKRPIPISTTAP
MAGI1_2, Q96QZ7, sequence (Q96QZ7 456-580): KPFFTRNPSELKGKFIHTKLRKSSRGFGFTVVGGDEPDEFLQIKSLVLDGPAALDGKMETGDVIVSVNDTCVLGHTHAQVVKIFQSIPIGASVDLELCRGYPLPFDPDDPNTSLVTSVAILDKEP
Inadl_10, Q8NI35, sequence (Q8NI35 1673-1763): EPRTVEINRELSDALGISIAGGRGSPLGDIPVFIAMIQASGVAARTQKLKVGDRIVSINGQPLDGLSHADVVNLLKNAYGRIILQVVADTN
GIPC2, Q8TF65, sequence (Q8TF65 112-203): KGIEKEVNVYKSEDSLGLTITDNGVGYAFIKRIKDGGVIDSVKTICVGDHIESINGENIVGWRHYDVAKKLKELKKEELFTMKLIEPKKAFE
Inadl_6, Q8NI35, sequence (Q8NI35 1058-1167): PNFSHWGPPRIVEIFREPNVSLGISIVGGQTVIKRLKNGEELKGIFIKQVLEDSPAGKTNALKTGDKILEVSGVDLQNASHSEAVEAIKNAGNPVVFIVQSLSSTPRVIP
GRIP2_5, Q9C0E4, sequence (Q9C0E4 544-642): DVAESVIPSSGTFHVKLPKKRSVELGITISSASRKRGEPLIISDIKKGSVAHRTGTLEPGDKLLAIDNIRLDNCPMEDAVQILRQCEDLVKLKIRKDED
MAGI3_2, Q5TCQ9, sequence (Q5TCQ9 398-503): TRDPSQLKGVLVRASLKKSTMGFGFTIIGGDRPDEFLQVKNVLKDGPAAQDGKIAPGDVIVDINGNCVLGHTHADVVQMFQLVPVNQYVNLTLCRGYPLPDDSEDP

Binder: EYRKDNKVAA [LSM14A, Q8ND56;Q8ND56-2]
pKd [1, 25]: below the threshold | pKd [2, 25]: below the threshold | pKd [3, 25]: below the threshold | pKd [4, 25]: below the threshold | pKd [5, 25]: below the threshold | pKd [6, 25]: below the threshold | pKd [7, 25]: below the threshold | pKd [8, 25]: below the threshold | pKd [9, 25]: below the threshold | pKd [10, 25]: below the threshold | pKd [11, 25]: below the threshold | pKd [12, 25]: below the threshold | pKd [13, 25]: below the threshold | pKd [14]: below the threshold | pKd [15, 25]: below the threshold | pKd [16, 25]: below the threshold | pKd [17, 25]: below the threshold | pKd [18, 25]: below the threshold | pKd [19, 25]: below the threshold | pKd [20, 25]: below the threshold | pKd [21, 25]: below the threshold | pKd [22, 25]: 4.23

Binder: LRYARPADAL [PPP1R3G, B7ZBB8]
pKd [1, 25]: below the threshold | pKd [2, 25]: below the threshold | pKd [3, 25]: below the threshold | pKd [4, 25]: below the threshold | pKd [5, 25]: below the threshold | pKd [6, 25]: below the threshold | pKd [7, 25]: below the threshold | pKd [8, 25]: below the threshold | pKd [9, 25]: 3.92 | pKd [10, 25]: below the threshold | pKd [23, 25]: 3.9 | pKd [11, 25]: below the threshold | pKd [12, 25]: below the threshold | pKd [13, 25]: below the threshold | pKd [14]: below the threshold | pKd [15, 25]: below the threshold | pKd [16, 25]: below the threshold | pKd [24, 25]: below the threshold | pKd [17, 25]: below the threshold | pKd [18, 25]: below the threshold | pKd [19, 25]: below the threshold | pKd [20, 25]: 3.9 | pKd [21, 25]: below the threshold | pKd [22, 25]: below the threshold

Binder: KSTTRSSSSC [NDE1, Q9NXR1;Q9NXR1-2]
pKd [1, 25]: below the threshold | pKd [2, 25]: below the threshold | pKd [3, 25]: below the threshold | pKd [5, 25]: below the threshold | pKd [6, 25]: below the threshold | pKd [7, 25]: below the threshold | pKd [8, 25]: below the threshold | pKd [9, 25]: below the threshold | pKd [10, 25]: below the threshold | pKd [23, 25]: below the threshold | pKd [11, 25]: below the threshold | pKd [12, 25]: below the threshold | pKd [13, 25]: below the threshold | pKd [15, 25]: below the threshold | pKd [16, 25]: below the threshold | pKd [17, 25]: below the threshold | pKd [18, 25]: below the threshold | pKd [20, 25]: 3.91 | pKd [22, 25]: 4.07

Binder: SKSLERATQL [COMMD3, Q9UBI1]
pKd [1, 25]: 3.57 | pKd [2, 25]: 3.51 | pKd [3, 25]: below the threshold | pKd [4, 25]: 3.73 | pKd [5, 25]: 4.11 | pKd [6, 25]: below the threshold | pKd [7, 25]: 3.49 | pKd [8, 25]: below the threshold | pKd [9, 25]: below the threshold | pKd [10, 25]: below the threshold | pKd [23, 25]: below the threshold | pKd [11, 25]: below the threshold | pKd [12, 25]: 4.49 | pKd [13, 25]: below the threshold | pKd [14]: 3.49 | pKd [15, 25]: 3.51 | pKd [16, 25]: below the threshold | pKd [24, 25]: 3.87 | pKd [17, 25]: below the threshold | pKd [18, 25]: 3.75 | pKd [19, 25]: 3.85 | pKd [20, 25]: 5.82 | pKd [21, 25]: below the threshold | pKd [22, 25]: 4.01

Further lines, results first:

pKd [1, 26]: 4.37 | pKd [2, 26]: 4.45 | pKd [3, 26]: below the threshold | pKd [4, 26]: 3.61 | pKd [5, 26]: below the threshold | pKd [6, 26]: below the threshold | pKd [7, 26]: below the threshold | pKd [8, 26]: below the threshold | pKd [9, 26]: 3.68 | pKd [10, 26]: 3.6 | pKd [23, 26]: below the threshold | pKd [11, 26]: below the threshold | pKd [12, 26]: 4.88 | pKd [13, 26]: below the threshold | pKd [15, 26]: below the threshold | pKd [16, 26]: 3.75 | pKd [24, 26]: 3.57 | pKd [17, 26]: below the threshold | pKd [18, 26]: 4.55 | pKd [19, 26]: 3.69 | pKd [20, 26]: 4.16 | pKd [21, 26]: below the threshold | pKd [22, 26]: 4.56
Binder: DEDQHTQITKV [PTEN_Ac, P60484]

pKd [1, 25]: below the threshold | pKd [2, 25]: below the threshold | pKd [3, 25]: below the threshold | pKd [4, 25]: below the threshold | pKd [5, 25]: below the threshold | pKd [6, 25]: below the threshold | pKd [7, 25]: below the threshold | pKd [8, 25]: below the threshold | pKd [9, 25]: 3.92 | pKd [10, 25]: below the threshold | pKd [23, 25]: 3.54 | pKd [11, 25]: 3.51 | pKd [12, 25]: below the threshold | pKd [13, 25]: below the threshold | pKd [14]: below the threshold | pKd [15, 25]: 3.53 | pKd [16, 25]: below the threshold | pKd [24, 25]: below the threshold | pKd [17, 25]: below the threshold | pKd [18, 25]: below the threshold | pKd [19, 25]: 3.51 | pKd [20, 25]: below the threshold | pKd [21, 25]: 3.51 | pKd [22, 25]: below the threshold
Binder: GDHLDRRVVL [VAC14, Q08AM6]
